Reference: patent US20220363757A1

Columns and labels:
Assay in all cases: SPR, Fab over captured mutant LAG-3-Fc
[1] = target: human LAG-3 domain 1-2 Fc fusion, chimeric construct #10 (mutated region AA 70-77) (human) (UniProt P18627)
[2] = target: human LAG-3 domain 1-2 Fc fusion, chimeric construct #16 (mutated region AA 98-105) (human) (UniProt P18627)
[3] = target: human LAG-3 domain 1-2 Fc fusion, chimeric construct #19 (mutated region AA 118-127) (human) (UniProt P18627)
[4] = target: human LAG-3 domain 1-2 Fc fusion, chimeric construct #2 (mutated region AA 29-30) (human) (UniProt P18627)
[5] = target: human LAG-3 domain 1-2 Fc fusion, chimeric construct #20 (mutated region AA 123-131) (human) (UniProt P18627)
[6] = target: human LAG-3 domain 1-2 Fc fusion, chimeric construct #23 (mutated region AA 148-152) (human) (UniProt P18627)
[7] = target: human LAG-3 domain 1-2 Fc fusion, chimeric construct #27 (mutated region AA 161-166) (human) (UniProt P18627)
[8] = target: human LAG-3 domain 1-2 Fc fusion, point mutation #10 S54A (human) (UniProt P18627)
[9] = target: human LAG-3 domain 1-2 Fc fusion, point mutation #13 R58A (human) (UniProt P18627)
[10] = target: human LAG-3 domain 1-2 Fc fusion, point mutation #19 D68A (human) (UniProt P18627)
[11] = target: human LAG-3 domain 1-2 Fc fusion, point mutation #22 A75S (human) (UniProt P18627)
[12] = target: human LAG-3 domain 1-2 Fc fusion, point mutation #23 P76A (human) (UniProt P18627)
[13] = target: human LAG-3 domain 1-2 Fc fusion, point mutation #30 G83A (human) (UniProt P18627)
[14] = target: human LAG-3 domain 1-2 Fc fusion, point mutation #32 H85A (human) (UniProt P18627)
[15] = target: human LAG-3 domain 1-2 Fc fusion, point mutation #33 P86A (human) (UniProt P18627)
[16] = target: human LAG-3 domain 1-2 Fc fusion, point mutation #38 S91A (human) (UniProt P18627)
[17] = target: human LAG-3 domain 1-2 Fc fusion, point mutation #41 P94A (human) (UniProt P18627)
[18] = target: human LAG-3 domain 1-2 Fc fusion, point mutation #46 Y99A (human) (UniProt P18627)
[19] = target: human LAG-3 domain 1-2 Fc fusion, point mutation #50 P106A (human) (UniProt P18627)
[20] = target: human LAG-3 domain 1-2 Fc fusion, point mutation #51 G107A (human) (UniProt P18627)
[21] = target: human LAG-3 domain 1-2 Fc fusion, point mutation #54 R110A (human) (UniProt P18627)
[22] = target: human LAG-3 domain 1-2 Fc fusion, point mutation #57 R113A (human) (UniProt P18627)
[23] = target: human LAG-3 domain 1-2 Fc fusion, point mutation #61 R119A (human) (UniProt P18627)
[24] = target: human LAG-3 domain 1-2 Fc fusion, point mutation #64 E124A (human) (UniProt P18627)
[25] = target: human LAG-3 domain 1-2 Fc fusion, point mutation #65 R125A (human) (UniProt P18627)
[26] = target: human LAG-3 domain 1-2 Fc fusion, point mutation #66 G126A (human) (UniProt P18627)
[27] = target: human LAG-3 domain 1-2 Fc fusion, point mutation #67 R127A (human) (UniProt P18627)
[28] = target: human LAG-3 domain 1-2 Fc fusion, point mutation #68 Q128A (human) (UniProt P18627)
[29] = target: human LAG-3 domain 1-2 Fc fusion, point mutation #7 P49A (human) (UniProt P18627)
[30] = target: human LAG-3 domain 1-2 Fc fusion, point mutation #75 R141A (human) (UniProt P18627)
[31] = target: human LAG-3 domain 1-2 Fc fusion, point mutation #77 R148A (human) (UniProt P18627)
[32] = target: human LAG-3 domain 1-2 Fc fusion, point mutation #78 R154A (human) (UniProt P18627)
[33] = target: human LAG-3 domain 1-2 Fc fusion, point mutation #9 D52A (human) (UniProt P18627)

Chain of human LAG-3 domain 1-2 Fc fusion, chimeric construct #27 (mutated region AA 161-166) (human) (P18627 other isoform, or with tags, fused parts or gaps mutant): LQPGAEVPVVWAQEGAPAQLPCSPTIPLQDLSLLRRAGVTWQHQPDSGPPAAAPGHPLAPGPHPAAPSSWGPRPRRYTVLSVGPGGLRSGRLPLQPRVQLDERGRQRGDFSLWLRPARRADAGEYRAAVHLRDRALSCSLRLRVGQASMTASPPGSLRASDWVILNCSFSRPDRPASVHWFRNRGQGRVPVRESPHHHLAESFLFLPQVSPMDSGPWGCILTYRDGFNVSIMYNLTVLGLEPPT
Chain of human LAG-3 domain 1-2 Fc fusion, point mutation #67 R127A (human) (P18627 23-266 R127A): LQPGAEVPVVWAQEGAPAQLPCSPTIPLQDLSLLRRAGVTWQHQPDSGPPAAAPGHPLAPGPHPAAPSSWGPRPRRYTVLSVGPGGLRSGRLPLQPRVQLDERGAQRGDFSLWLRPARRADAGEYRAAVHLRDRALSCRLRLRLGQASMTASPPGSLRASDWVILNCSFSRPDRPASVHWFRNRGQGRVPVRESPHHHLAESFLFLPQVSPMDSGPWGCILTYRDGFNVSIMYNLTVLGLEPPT
Chain of human LAG-3 domain 1-2 Fc fusion, point mutation #68 Q128A (human) (P18627 23-266 Q128A): as the sequence (P18627 23-266 R127A) above, with A105R, Q106A counted along it
Chain of human LAG-3 domain 1-2 Fc fusion, chimeric construct #10 (mutated region AA 70-77) (human) (P18627 other isoform, or with tags, fused parts or gaps mutant limits assumed): as the sequence (P18627 23-266 R127A) above, with G48D, P49Q, A52S, A53I, G55A, A105R counted along it
Chain of human LAG-3 domain 1-2 Fc fusion, point mutation #57 R113A (human) (P18627 23-266 R113A): as the sequence (P18627 23-266 R127A) above, with R91A, A105R counted along it
Chain of human LAG-3 domain 1-2 Fc fusion, point mutation #41 P94A (human) (P18627 23-266 P94A): as the sequence (P18627 23-266 R127A) above, with P72A, A105R counted along it
Chain of human LAG-3 domain 1-2 Fc fusion, point mutation #19 D68A (human) (P18627 23-266 D68A): as the sequence (P18627 23-266 R127A) above, with D46A, A105R counted along it
Chain of human LAG-3 domain 1-2 Fc fusion, point mutation #46 Y99A (human) (P18627 23-266 Y99A): as the sequence (P18627 23-266 R127A) above, with Y77A, A105R counted along it
Chain of human LAG-3 domain 1-2 Fc fusion, point mutation #30 G83A (human) (P18627 23-266 G83A): as the sequence (P18627 23-266 R127A) above, with G61A, A105R counted along it
Chain of human LAG-3 domain 1-2 Fc fusion, point mutation #22 A75S (human) (P18627 23-266 A75S): as the sequence (P18627 23-266 R127A) above, with A53S, A105R counted along it
Chain of human LAG-3 domain 1-2 Fc fusion, point mutation #23 P76A (human) (P18627 23-266 P76A): as the sequence (P18627 23-266 R127A) above, with P54A, A105R counted along it
Chain of human LAG-3 domain 1-2 Fc fusion, chimeric construct #20 (mutated region AA 123-131) (human) (P18627 23-266, change not shown): as the sequence (P18627 23-266 R127A) above, with A105R counted along it
Chain of human LAG-3 domain 1-2 Fc fusion, chimeric construct #2 (mutated region AA 29-30) (human) (P18627 other isoform, or with tags, fused parts or gaps mutant): as the sequence (P18627 23-266 R127A) above, with V7L, P8S, A105R counted along it
Chain of human LAG-3 domain 1-2 Fc fusion, chimeric construct #16 (mutated region AA 98-105) (human) (P18627 other isoform, or with tags, fused parts or gaps mutant): as the sequence (P18627 23-266 R127A) above, with R76S, T78V, S81M, V82R, G83A, A105R counted along it
Chain of human LAG-3 domain 1-2 Fc fusion, point mutation #13 R58A (human) (P18627 23-266 R58A): as the sequence (P18627 23-266 R127A) above, with R36A, A105R counted along it
Chain of human LAG-3 domain 1-2 Fc fusion, chimeric construct #23 (mutated region AA 148-152) (human) (P18627 other isoform, or with tags, fused parts or gaps mutant): as the sequence (P18627 23-266 R127A) above, with A105R, R126H, A128F, H130R counted along it
Chain of human LAG-3 domain 1-2 Fc fusion, point mutation #10 S54A (human) (P18627 23-266 S54A): as the sequence (P18627 23-266 R127A) above, with S32A, A105R counted along it
Chain of human LAG-3 domain 1-2 Fc fusion, point mutation #50 P106A (human) (P18627 23-266 P106A): as the sequence (P18627 23-266 R127A) above, with P84A, A105R counted along it
Chain of human LAG-3 domain 1-2 Fc fusion, point mutation #32 H85A (human) (P18627 23-266 H85A): as the sequence (P18627 23-266 R127A) above, with H63A, A105R counted along it

KD mutant/KD wild type [1]: 1 fold
KD mutant/KD wild type [2]: 1.7 fold
KD mutant/KD wild type [3]: 0.8 fold
KD mutant/KD wild type [4]: 1.2 fold
KD mutant/KD wild type [5]: 1.3 fold
KD mutant/KD wild type [6]: 0.8 fold
KD mutant/KD wild type [7]: 0.8 fold
KD mutant/KD wild type [8]: 0.8 fold
KD mutant/KD wild type [9]: 0.8 fold
KD mutant/KD wild type [10]: 0.9 fold
KD mutant/KD wild type [11]: 0.9 fold
KD mutant/KD wild type [12]: 0.9 fold
KD mutant/KD wild type [13]: 1 fold
KD mutant/KD wild type [14]: 14.1 fold
KD mutant/KD wild type [15]: 2.7 fold
KD mutant/KD wild type [16]: 2.2 fold
KD mutant/KD wild type [17]: 0.8 fold
KD mutant/KD wild type [18]: 1 fold
KD mutant/KD wild type [19]: 1 fold
KD mutant/KD wild type [20]: 0.8 fold
KD mutant/KD wild type [21]: 0.9 fold
KD mutant/KD wild type [22]: 0.8 fold
KD mutant/KD wild type [23]: 1.1 fold
KD mutant/KD wild type [24]: 1.1 fold
KD mutant/KD wild type [25]: 0.9 fold
KD mutant/KD wild type [26]: 0.9 fold
KD mutant/KD wild type [27]: 0.7 fold
KD mutant/KD wild type [28]: 0.7 fold
KD mutant/KD wild type [29]: 1.1 fold
KD mutant/KD wild type [30]: 0.8 fold
KD mutant/KD wild type [31]: 1.2 fold
KD mutant/KD wild type [32]: 0.8 fold
KD mutant/KD wild type [33]: 0.8 fold
Substance: Fab fragment of 25F7-Lag3.5 analogue
